Assay results: paper PMC10839757

Columns and labels:
Assay in all cases: purified protein
purified protein [1] = substrate: NNC(=O)c1ccncc1; settings: pH 7.5
purified protein [2] = substrate: NC(=O)c1ccc[n+]([C@@H]2O[C@H](COP(=O)(O)OP(=O)(O)OC[C@H]3O[C@@H](n4cnc5c(N)ncnc54)[C@H](O)[C@@H]3O)[C@@H](O)[C@H]2O)c1; settings: pH 7.5
purified protein [3] = substrate: COc1cc(-c2ccc(N)c(OC)c2)ccc1N; settings: pH 5.5

B1: WT-KatG (Mt-KatG, Mycobacterium tuberculosis catalase-peroxidase) (Mycobacterium tuberculosis H37Rv) (protein)
chain: MPEQHPPITETTTGAASNGCPVVGHMKYPVEGGGNQDWWPNRLNLKVLHQNPAVADPMGAAFDYAAEVATIDVDALTRDIEEVMTTSQPWWPADYGHYGPLFIRMAWHAAGTYRIHDGRGGAGGGMQRFAPLNSWPDNASLDKARRLLWPVKKKYGKKLSWADLIVFAGNCALESMGFKTFGFGFGRVDQWEPDEVYWGKEATWLGDERYSGKRDLENPLAAVQMGLIYVNPEGPNGNPDPMAAAVDIRETFRRMAMNDVETAALIVGGHTFGKTHGAGPADLVGPEPEAAPLEQMGLGWKSSYGTGTGKDAITSGIEVVWTNTPTKWDNSFLEILYGYEWELTKSPAGAWQYTAKDGAGAGTIPDPFGGPGRSPTMLATDLSLRVDPIYERITRRWLEHPEELADEFAKAWYKLIHRDMGPVARYLGPLVPKQTLLWQDPVPAVSHDLVGEAEIASLKSQIRASGLTVSQLVSTAWAAASSFRGSDKRGGANGGRIRLQPQVGWEVNDPDGDLRKVIRTLEEIQESFNSAAPGNIKVSFADLVVLGGCAAIEKAAKAAGHNITVPFTPGRTDASQEQTDVESFAVLEPKADGFRNYLGKGNPLPAEYMLLDKANLLTLSAPEMTVLVGGLRVLGANYKRLPLGVFTEASESLTNDFFVNLLDMGITWEPSPADDGTYQGKDGSGKVKWTGSRVDLVFGSNSELRALVEVYGADDAQPKFVQDFVAAWDKVMNLDRFDVR
Question: With B1 as the protein, how does the Km (purified protein [1]) read?
Answer: 1900 ± 100 µM

Question: What about the kcat/Km (purified protein [1]) of the same protein?
Answer: 50.6 M⁻¹ s⁻¹

Question: What about the Km (purified protein [2]) of the same protein?
Answer: 210 ± 40 µM

Question: What about the kcat/Km (purified protein [2]) of the same protein?
Answer: 443 M⁻¹ s⁻¹

Question: And the Km (purified protein [3])?
Answer: 2.1 ± 0.8 µM

Question: And the kcat/Km (purified protein [3])?
Answer: 3.1e+06 M⁻¹ s⁻¹
